According to paper PMC4368098, “DICER-ARGONAUTE2 Complex in Continuous Fluorogenic Assays of RNA Interference Enzymes”:

Molecular target: DICER;ARGONAUTE2 (AGO2) (human;human, UniProt Q9UPY3;Q9UKV8 1-1922;1-859, |)
Test: competition (fluorogenic siRNA processing); 80 nM BoPsi664, 30 nM each enzyme; Assay Buffer with 1 mM free Mg2+ (full composition not in the material), 37 C; indirect read-out by competitive inhibition of fluorogenic siRNA processing, no d
Settings: protein: recombinant;recombinant, tags: C-terminal 6xHis with TEV site, tag removed by TEV;N-terminal 6xHis with TEV site
[1] = copies: 1;1, 3' overhang 2 nt on strand 1, other end blunt
[2] = copies: 1;1, 3' overhang 2 nt on strand 2, other end blunt

Row | Binder | IC50 [1] [nM] | IC50 [2] [nM]
1 | D09 (dsRNA) RNA 1: CAGACACCUAGUCCUUCCGAUGGAAGC RNA 2: UUCCAUCGGAAGGACUAGGUGUCUG | 767 | 
2 | D07 (dsRNA) RNA 1: GGAUAAAAUUCUCAAUUCAGAGAAA RNA 2: UUUCUCUGAAUUGAGAAUUUUAUCCAA |  | 282
3 | D03 (dsRNA) RNA 1: CCGGUUGAAUCUUCAGAUAUGAAAA RNA 2: UUUUCAUAUCUGAAGAUUCAACCGGUU |  | 150
4 | D04 (dsRNA) RNA 1: GUUCCUGAGGAAGAACUAAAUCCAA RNA 2: UUGGAUUUAGUUCUUCCUCAGGAACUG |  | 180
5 | D08 (dsRNA) RNA 1: CCAGAAGAACUUUUAGGCCGCUCAAUU RNA 2: UUGAGCGGCCUAAAAGUUCUUCUGG | 1060 | 
6 | D11 (dsRNA) RNA 1: ACCUGAGCCUAAUAGUCCCAGUGAAUA RNA 2: UUCACUGGGACUAUUAGGCUCAGGU | 364 | 
7 | D05 (dsRNA) RNA 1: GGAACAUGAUGGUUCACUUUUUCAA RNA 2: UUGAAAAAGUGAACCAUCAUGUUCCAU |  | 209
8 | D25 (dsRNA) RNA 1: GCACCCCCACCUCUGGACUUGCCUUUC RNA 2: AAGGCAAGUCCAGAGGUGGGGGUGC | 796 | 
9 | D02 (dsRNA) RNA 1: GCUGAUUUGUGAACCCAUUCCUCAC RNA 2: GUGAGGAAUGGGUUCACAAAUCAGCAC |  | 142
10 | D01 (dsRNA) RNA 1: ACCGGUUGAAUCUUCAGAUAUGAAA RNA 2: UUUCAUAUCUGAAGAUUCAACCGGUUU |  | 56
11 | D06 (dsRNA) RNA 1: GGAUAGUGAUAUGGUCAAUGAAUUC RNA 2: GAAUUCAUUGACCAUAUCACUAUCCAC |  | 474
12 | D10 (dsRNA) RNA 1: CCUGAGGAAGAACUAAAUCCAAAGAUA RNA 2: UCUUUGGAUUUAGUUCUUCCUCAGG | 633 | 
13 | D12 (dsRNA) RNA 1: UACUCAGGACACAGAUUUAGACUUGGA RNA 2: CAAGUCUAAAUCUGUGUCCUGAGUA | 453 | 
